Where “and” joins values, the source holds several entries; their conditions need not be identical. Equal values may be shown once.
Columns and labels:
[1] = molecular target: Anabaena sensory rhodopsin (Anabaena sp. PCC7120); assay: high-speed atomic force microscopy (HS-AFM); protein reconstituted in asolectin lipid membrane of limited size with MSP1E3D1, on APTES-treated mica; 20 mM Tris-HCl (pH 8.0), 50 mM NaCl, room temperature; oligomer seen subunit by subunit
[2] = molecular target: Anabaena sensory rhodopsin (Anabaena sp. PCC7120); assay: circular dichroism spectroscopy (visible, exciton coupling of retinals); protein reconstituted in POPE/POPG (3:1) liposomes, protein:lipid 1:50; 100 mM NaCl, 20 mM Tris-HCl (pH 8.0), 25 °C
[3] = molecular target: Fulvimarina rhodopsin (Fulvimarina pelagi); assay: high-speed atomic force microscopy (HS-AFM); protein reconstituted in asolectin lipid membrane of limited size with MSP1E3D1, on APTES-treated mica; 20 mM Tris-HCl (pH 8.0), 50 mM NaCl, room temperature; oligomer seen subunit by subunit
[4] = molecular target: Kineococcus radiotolerans actinorhodopsin (Kineococcus radiotolerans); assay: as above
[5] = molecular target: Krokinobacter eikastus rhodopsin 2 (Krokinobacter eikastus); assay: as above
[6] = molecular target: Krokinobacter eikastus rhodopsin 2 (Krokinobacter eikastus); assay: circular dichroism spectroscopy (visible, exciton coupling of retinals); protein solubilized in DDM
[7] = molecular target: Parvularcula oceani xenorhodopsin (Parvularcula oceani); assay: high-speed atomic force microscopy (HS-AFM); protein reconstituted in asolectin lipid membrane of limited size with MSP1E3D1, on APTES-treated mica; 20 mM Tris-HCl (pH 8.0), 50 mM NaCl, room temperature; oligomer seen subunit by subunit
[8] = molecular target: Parvularcula oceani xenorhodopsin (Parvularcula oceani); assay: circular dichroism spectroscopy (visible, exciton coupling of retinals); protein reconstituted in POPE/POPG (3:1) liposomes, protein:lipid 1:50; 100 mM NaCl, 20 mM Tris-HCl (pH 8.0), 25 °C
[9] = molecular target: KR2_(278) (Krokinobacter eikastus); assay: high-speed atomic force microscopy (HS-AFM); protein reconstituted in asolectin lipid membrane of limited size with MSP1E3D1, on APTES-treated mica; 20 mM Tris-HCl (pH 8.0), 50 mM NaCl, room temperature; oligomer seen subunit by subunit
[10] = molecular target: KR2_(278) (Krokinobacter eikastus); assay: high-speed atomic force microscopy (HS-AFM); protein reconstituted in asolectin lipid membrane with MSP1E3D1, on APTES-treated mica; acidic solution: 20 mM citrate-NaOH (pH 4.3), 50 mM NaCl, room temperature
[11] = molecular target: Quadrisphaera actinorhodopsin (Quadrisphaera sp. R2A-380-A); assay: high-speed atomic force microscopy (HS-AFM); protein reconstituted in asolectin lipid membrane of limited size with MSP1E3D1, on APTES-treated mica; 20 mM Tris-HCl (pH 8.0), 50 mM NaCl, room temperature; oligomer seen subunit by subunit
[12] = molecular target: T1, Natronomonas pharaonis sensory rhodopsin II (Natronomonas pharaonis), P42196; assay: as above; details: remark: other sources report otherwise
T1 chain: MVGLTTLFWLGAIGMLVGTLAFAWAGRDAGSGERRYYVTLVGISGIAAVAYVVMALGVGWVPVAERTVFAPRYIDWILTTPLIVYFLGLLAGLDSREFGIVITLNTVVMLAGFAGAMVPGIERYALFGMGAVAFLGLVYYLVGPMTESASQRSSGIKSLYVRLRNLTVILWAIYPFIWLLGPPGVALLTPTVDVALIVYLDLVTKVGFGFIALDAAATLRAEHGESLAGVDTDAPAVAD

[13] = molecular target: the molecule itself; assay: as above

Molecule: Anabaena sensory rhodopsin (natural protein)
- stoichiometry N [1]: 3
- stoichiometry N [2]: 3

Molecule: Fulvimarina rhodopsin (natural protein)
- stoichiometry N [3]: 5

Molecule: Kineococcus radiotolerans actinorhodopsin (natural protein)
- stoichiometry N [4]: 5

Molecule: Krokinobacter eikastus rhodopsin 2 (natural protein)
- stoichiometry N [5]: 5
- stoichiometry N [6]: 5

Molecule: Parvularcula oceani xenorhodopsin (natural protein)
- stoichiometry N [7]: 3
- stoichiometry N [8]: 3

Molecule: KR2_(278) (domain or fragment)
- stoichiometry N [9]: 5
- stoichiometry N [10]: 5

Molecule: Quadrisphaera actinorhodopsin (natural protein)
- stoichiometry N [11]: 5

B1: Natronomonas pharaonis sensory rhodopsin II, P42196 1-239 (natural protein)
chain: MVGLTTLFWLGAIGMLVGTLAFAWAGRDAGSGERRYYVTLVGISGIAAVAYVVMALGVGWVPVAERTVFAPRYIDWILTTPLIVYFLGLLAGLDSREFGIVITLNTVVMLAGFAGAMVPGIERYALFGMGAVAFLGLVYYLVGPMTESASQRSSGIKSLYVRLRNLTVILWAIYPFIWLLGPPGVALLTPTVDVALIVYLDLVTKVGFGFIALDAAATLRAEHGESLAGVDTDAPAVAD
modifications: here or on the partner: retinal chromophore; retinal chromophore
- stoichiometry N [12]: 3

B2: green-absorbing proteorhodopsin (natural protein, uncultured marine gamma proteobacterium, UniProt Q9F7P4 18-249, looked up)
chain: AGGGDLDASDYTGVSFWLVTAALLASTVFFFVERDRVSAKWKTSLTVSGLVTGIAFWHYMYMRGVWIETGDSPTVFRYIDWLLTVPLLICEFYLILAAATNVAGSLFKKLLVGSLVMLVFGYMGEAGIMAAWPAFIIGCLAWVYMIYELWAGEGKSACNTASPAVQSAYNTMMYIIIFGWAIYPVGYFTGYLMGDGGSALNLNLIYNLADFVNKILFGLIIWNVAVKESSNA
modifications: retinal chromophore
notes: Green-absorbing proteorhodopsin (GPR), proton pump, from uncultured marine gamma proteobacterium; Pentamers (76%) and hexamers (24%) coexist in the lipid; copies gives the dominant form; also called green proteorhodopsin
- stoichiometry N [13]: 5 and 6

B3: Natronomonas pharaonis halorhodopsin (natural protein, UniProt P15647 1-291, looked up)
chain: MTETLPPVTESAVALQAEVTQRELFEFVLNDPLLASSLYINIALAGLSILLFVFMTRGLDDPRAKLIAVSTILVPVVSIASYTGLASGLTISVLEMPAGHFAEGSSVMLGGEEVDGVVTMWGRYLTWALSTPMILLALGLLAGSNATKLFTAITFDIAMCVTGLAAALTTSSHLMRWFWYAISCACFLVVLYILLVEWAQDAKAAGTADMFNTLKLLTVVMWLGYPIVWALGVEGIAVLPVGVTSWGYSFLDIVAKYIFAFLLLNYLTSNESVVSGSILDVPSASGTPADD
modifications: retinal chromophore
notes: Halorhodopsin (chloride pump) from Natronomonas pharaonis; also called NpHR
- stoichiometry N [13]: 3

B4: Gloeobacter rhodopsin (natural protein, Gloeobacter violaceus PCC 7421, UniProt Q7NP59 1-298, looked up)
chain: MLMTVFSSAPELALLGSTFAQVDPSNLSVSDSLTYGQFNLVYNAFSFAIAAMFASALFFFSAQALVGQRYRLALLVSAIVVSIAGYHYFRIFNSWDAAYVLENGVYSLTSEKFNDAYRYVDWLLTVPLLLVETVAVLTLPAKEARPLLIKLTVASVLMIATGYPGEISDDITTRIIWGTVSTIPFAYILYVLWVELSRSLVRQPAAVQTLVRNMRWLLLLSWGVYPIAYLLPMLGVSGTSAAVGVQVGYTIADVLAKPVFGLLVFAIALVKTKADQESSEPHAAIGAAANKSGGSLIS
modifications: retinal chromophore
notes: Gloeobacter rhodopsin (GR), proton pump, from Gloeobacter violaceus PCC 7421; also called GR; rhodopsin from Gloeobacter violaceus PCC 7421; not shown: His6, C-terminal, kept
- stoichiometry N [13]: 5

Source: PMC5974397, “Oligomeric states of microbial rhodopsins determined by high-speed atomic force microscopy and circular dichroic spectroscopy” (Scientific Reports, 2018)
